Patent US20110143993A1 (BRIGHAM AND WOMEN S HOSPITAL, published 2011)
No end group written: not given here.

B1: phage clone C-8 (HWGSLRA displayed on pIII of M13 phage) (peptide)
peptide: HWGSLRA
notes: 100% of the round 5 clones; not shown: minor coat protein pIII of M13 filamentous phage (Ph.D.-7 library, New England Biolabs)
B2: phage clone A-9 (KIFVWPY displayed on pIII of M13 phage) (peptide)
peptide: KIFVWPY
modifications: not fully specified
notes: Whole phage particle displaying the heptamer; tested as phage, detected with anti-M13 antibody; not shown: minor coat protein pIII of M13 filamentous phage (Ph.D.-7 library, New England Biolabs)
B3: phage clone C-11 (KLWVLPK displayed on pIII of M13 phage) (peptide)
peptide: KLWVLPK
notes: Whole phage particle displaying the heptamer; tested as phage (ELISA with anti-M13 antibody, titer counts); also called Phage C-11; not shown: minor coat protein pIII of M13 filamentous phage (Ph.D.-7 library, New England Biolabs)
B4: phage clone C-10 (KIWKLPQ displayed on pIII of M13 phage) (peptide)
peptide: KIWKLPQ
notes: as for B2
B5: phage clone A-8 (KVWSLPQ displayed on pIII of M13 phage) (peptide)
peptide: KVWSLPQ
notes: as for B2

Target: T1, bovine serum albumin (bovine, UniProt P02769 25-607)
T1 construct: also called BSA
T1 sequence (P02769 25-607 limits assumed): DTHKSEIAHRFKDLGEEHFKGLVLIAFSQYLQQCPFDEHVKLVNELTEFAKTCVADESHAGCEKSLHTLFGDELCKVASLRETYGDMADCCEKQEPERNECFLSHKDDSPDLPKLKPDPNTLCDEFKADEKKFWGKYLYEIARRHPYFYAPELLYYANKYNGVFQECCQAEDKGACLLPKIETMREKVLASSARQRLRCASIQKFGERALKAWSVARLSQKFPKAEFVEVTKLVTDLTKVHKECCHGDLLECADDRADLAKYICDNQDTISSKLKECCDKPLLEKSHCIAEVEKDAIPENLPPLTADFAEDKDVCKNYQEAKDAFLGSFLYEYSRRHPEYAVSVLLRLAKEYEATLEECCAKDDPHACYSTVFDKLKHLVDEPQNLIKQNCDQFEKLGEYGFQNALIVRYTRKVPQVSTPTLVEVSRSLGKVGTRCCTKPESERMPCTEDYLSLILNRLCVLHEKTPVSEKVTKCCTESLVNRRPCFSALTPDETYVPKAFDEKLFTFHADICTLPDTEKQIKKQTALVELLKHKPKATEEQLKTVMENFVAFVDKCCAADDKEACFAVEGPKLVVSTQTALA
Assay: phage ELISA on BSA-coated wells, anti-M13 HRP/ABTS
Experimental: The clones were tested against the random library (R0) for binding to Matrigel (lighter shaded bars) or BSA (black bars). Bound phages were labeled with peroxidase-conjugated anti-M13 monoclonal antibodies (mAbs), and ABTS absorbance at 405 nm was read against a reference wavelength of 490 nm (mean±s.d., n=3). (**) P<0.01; (***) P<0.001, all compared with R0 (one-way analysis of variance with Tukey post-hoc test).
96-well plates were coated with 100 μL 1/50 dilutions of Matrigel in TBS overnight at 4° C., or TBS buffer only. Plates were blocked with 3% BSA/TBS for 2 h at RT and washed three times. 10¹⁰ p.f.u. of each phage clone was added in 0.5% TBST in triplicate to either Matrigel or BSA-coated wells. Bound phage particles were detected with peroxidase-conjugated mouse anti-M13 monoclonal antibodies at 1/5000 dilution (Amersham Pharmacia Biotech, Piscataway, N.J.). After a 1 h incubation, the reaction was developed with 2,2′-azino-bis(3-ethylbenzthiazoline-6-sulphonic acid) (ABTS) (Amersham) and the absorbance was read at 405 nm against a reference wavelength of 490 nm with a SpectraMax Plus 384 Microplate reader (Molecular Devices, Sunnyvale, Calif.).

| Binder | binding result |
| --- | --- |
| B1 | no binding (tested: 10^10 p.f.u. of each phage clone) |
| B2 | no binding (tested: 10^10 p.f.u. of each phage clone) |
| B3 | no binding (tested: 10^10 p.f.u. of each phage clone) |
| B4 | no binding (tested: 10^10 p.f.u. of each phage clone) |
| B5 | no binding (tested: 10^10 p.f.u. of each phage clone) |

Target: T2, Matrigel growth factor reduced LDEV free (basement membrane extract rich in collagen IV and laminin)
T2 construct: A mixture coated on plates, not one protein
Assay: phage titer count of eluted phage, input 10^12/mL p.f.u., against random library R0, n=3

| Binder | fold binding compared to the library (R0), phage titer |
| --- | --- |
| B3 | ~300 fold |
